{
  "source": "paper PMC6237735",
  "key": {"[1]": {"test_system": "Pa-30S small ribosomal subunit;Pa-aIF1 (Pyrococcus abyssi;Pyrococcus abyssi)", "test": "fluorescence anisotropy", "details": "preformed 30S:aIF1; mRNA 0.5 nM; Anisotropy: 10 mM HEPES pH 7.5, 200 mM NaCl, 10 mM Mg acetate, 0.1% Tween 20, 51 C; toeprinting: 10 mM HEPES pH 7.5, 158 mM NaCl, 20 mM NH4Cl, 13.5 mM Mg …"}, "[2]": {"test_system": "Pa-30S small ribosomal subunit (Pyrococcus abyssi)", "test": "fluorescence anisotropy", "details": "30S alone; mRNA 8 nM; Anisotropy: 10 mM HEPES pH 7.5, 200 mM NaCl, 10 mM Mg acetate, 0.1% Tween 20, 51 C; toeprinting: 10 mM HEPES pH 7.5, 158 mM NaCl, 20 mM NH4Cl, 13.5 mM Mg …"}, "[3]": {"test_system": "Pa-aIF1* unlabeled (Pyrococcus abyssi)", "test": "competition", "details": "chase of labeled aIF1* from 30S; Anisotropy: 10 mM HEPES pH 7.5, 200 mM NaCl, 10 mM Mg acetate, 0.1% Tween 20, 51 C; toeprinting: 10 mM HEPES pH 7.5, 158 mM NaCl, 20 mM NH4Cl, 13.5 mM Mg …"}, "[4]": {"test_system": "Pa-aIF1*-K34A (Pyrococcus abyssi)", "test": "fluorescence anisotropy", "details": "Anisotropy: 10 mM HEPES pH 7.5, 200 mM NaCl, 10 mM Mg acetate, 0.1% Tween 20, 51 C; toeprinting: 10 mM HEPES pH 7.5, 158 mM NaCl, 20 mM NH4Cl, 13.5 mM Mg …"}, "[5]": {"test_system": "Pa-aIF1*-Y32A (Pyrococcus abyssi)", "test": "fluorescence anisotropy", "details": "Anisotropy: 10 mM HEPES pH 7.5, 200 mM NaCl, 10 mM Mg acetate, 0.1% Tween 20, 51 C; toeprinting: 10 mM HEPES pH 7.5, 158 mM NaCl, 20 mM NH4Cl, 13.5 mM Mg …"}, "[6]": {"test_system": "Pa-aIF1*-R31A (Pyrococcus abyssi)", "test": "fluorescence anisotropy", "details": "Anisotropy: 10 mM HEPES pH 7.5, 200 mM NaCl, 10 mM Mg acetate, 0.1% Tween 20, 51 C; toeprinting: 10 mM HEPES pH 7.5, 158 mM NaCl, 20 mM NH4Cl, 13.5 mM Mg …"}, "[7]": {"test_system": "Pa-aIF1* (MDCC-coumarin labeled) (Pyrococcus abyssi)", "test": "fluorescence anisotropy", "details": "aIF1* binding to 30S, no mRNA; Anisotropy: 10 mM HEPES pH 7.5, 200 mM NaCl, 10 mM Mg acetate, 0.1% Tween 20, 51 C; toeprinting: 10 mM HEPES pH 7.5, 158 mM NaCl, 20 mM NH4Cl, 13.5 mM Mg …"}, "[8]": {"biological_target": "Pyrococcus abyssi small ribosomal subunit (Pa-30S) (Pyrococcus abyssi)", "test": "fluorescence polarisation; fluorescence anisotropy of coumarin-labeled aIF1 (50 nM for the variants; 13 nM for Pa-aIF1*) titrated with Pa-30S:mRNA complex (30S with a 2-fold molar excess of mRNA); 51°C; 10 mM HEPES pH 7.5, 200 mM NaCl, 10 mM MgAc, 0.1% Tween 20; quadratic fit"}, "[9]": {"biological_target": "Pyrococcus abyssi small ribosomal subunit (Pa-30S) (Pyrococcus abyssi)", "test": "fluorescence polarisation; fluorescence anisotropy of coumarin-labeled aIF1* (50 nM) titrated with purified Pa-30S, no mRNA; 51°C; 10 mM HEPES pH 7.5, 200 mM NaCl, 10 mM MgAc, 0.1% Tween 20; quadratic fit"}, "[10]": {"test_system": "Pa-30S small ribosomal subunit;Pa-aIF1* unlabeled (Pyrococcus abyssi;Pyrococcus abyssi)", "test": "competition", "details": "Kd of unlabeled aIF1* for 30S:mRNA; 180 nM mRNA; Anisotropy: 10 mM HEPES pH 7.5, 200 mM NaCl, 10 mM Mg acetate, 0.1% Tween 20, 51 C; toeprinting: 10 mM HEPES pH 7.5, 158 mM NaCl, 20 mM NH4Cl, 13.5 mM Mg …"}, "[11]": {"test_system": "Pa-30S small ribosomal subunit;Pa-aIF1*-R31A (Pyrococcus abyssi;Pyrococcus abyssi)", "test": "fluorescence anisotropy", "details": "Anisotropy: 10 mM HEPES pH 7.5, 200 mM NaCl, 10 mM Mg acetate, 0.1% Tween 20, 51 C; toeprinting: 10 mM HEPES pH 7.5, 158 mM NaCl, 20 mM NH4Cl, 13.5 mM Mg …"}, "[12]": {"test_system": "Pa-30S small ribosomal subunit;Pa-aIF1*-K34A (Pyrococcus abyssi;Pyrococcus abyssi)", "test": "fluorescence anisotropy", "details": "Anisotropy: 10 mM HEPES pH 7.5, 200 mM NaCl, 10 mM Mg acetate, 0.1% Tween 20, 51 C; toeprinting: 10 mM HEPES pH 7.5, 158 mM NaCl, 20 mM NH4Cl, 13.5 mM Mg …"}, "[13]": {"test_system": "Pa-30S small ribosomal subunit;Pa-aIF1* (MDCC-coumarin labeled) (Pyrococcus abyssi;Pyrococcus abyssi)", "test": "fluorescence anisotropy", "details": "Kd of aIF1* for 30S:mRNA; best fit 0.2 nM; Anisotropy: 10 mM HEPES pH 7.5, 200 mM NaCl, 10 mM Mg acetate, 0.1% Tween 20, 51 C; toeprinting: 10 mM HEPES pH 7.5, 158 mM NaCl, 20 mM NH4Cl, 13.5 mM Mg …"}, "[14]": {"test_system": "Pa-30S small ribosomal subunit;Pa-aIF1*-Y32A (Pyrococcus abyssi;Pyrococcus abyssi)", "test": "fluorescence anisotropy", "details": "Anisotropy: 10 mM HEPES pH 7.5, 200 mM NaCl, 10 mM Mg acetate, 0.1% Tween 20, 51 C; toeprinting: 10 mM HEPES pH 7.5, 158 mM NaCl, 20 mM NH4Cl, 13.5 mM Mg …"}, "[15]": {"biological_target": "Pyrococcus abyssi small ribosomal subunit (Pa-30S) (Pyrococcus abyssi)", "test": "fluorescence polarisation; fluorescence anisotropy of coumarin-labeled aIF1 (50 nM for the variants; 13 nM for Pa-aIF1*) titrated with Pa-30S:mRNA complex (30S with a 2-fold molar excess of mRNA); 51°C; 10 mM HEPES pH 7.5, 200 mM NaCl, 10 mM MgAc, 0.1% Tween 20; quadratic fit", "remark": "listed apart in the source"}, "[16]": {"biological_target": "Pyrococcus abyssi small ribosomal subunit (Pa-30S) (Pyrococcus abyssi)"}},
  "data": [
    {"substance": "AUUUGGAGGUGAUUUAAAUGCCAAAG [wt-aEF1A-mRNA 26-mer]", "values": [
      {"measurement": "Kd", "setting": "[1]", "value": 0.07, "unit": "nM"},
      {"measurement": "Kd", "setting": "[2]", "value": 3.3, "unit": "nM"}
    ]},
    {"substance": "Pa-30S (16S rRNA in small ribosomal subunit)", "values": [
      {"measurement": "Kd", "setting": "[3]", "value": 40, "unit": "nM"},
      {"measurement": "Kd", "setting": "[4]", "value": "> 300", "unit": "nM"},
      {"measurement": "Kd", "setting": "[5]", "value": 20, "unit": "nM"},
      {"measurement": "Kd", "setting": "[6]", "value": 84, "unit": "nM"},
      {"measurement": "Kd", "setting": "[7]", "value": 12, "unit": "nM"}
    ]},
    {"substance": "Pa-aIF1*-R31A (natural protein)", "values": [
      {"measurement": "Kd", "setting": "[8]", "value": "< 3", "unit": "nM"},
      {"measurement": "Kd", "setting": "[9]", "value": 84, "unit": "nM"}
    ]},
    {"substance": "AUUUGGAGGUGAUUUAAAUGCCAAAG [wt-aEF1A mRNA 26-mer, unlabeled]", "values": [
      {"measurement": "Kd", "setting": "[10]", "value": 0.4, "unit": "nM"},
      {"measurement": "Kd", "setting": "[11]", "value": "< 3", "unit": "nM"},
      {"measurement": "Kd", "setting": "[12]", "value": 45, "unit": "nM"},
      {"measurement": "Kd", "setting": "[13]", "value": "< 1", "unit": "nM"},
      {"measurement": "Kd", "setting": "[14]", "value": 22, "unit": "nM"}
    ]},
    {"substance": "Pa-aIF1* (Pyrococcus abyssi aIF1 K45C-C62S labeled with coumarin) (natural protein)", "values": [
      {"measurement": "Kd", "setting": "[8]", "value": "< 1", "unit": "nM"},
      {"measurement": "Kd", "setting": "[15]", "value": 0.2, "unit": "nM"},
      {"measurement": "Kd", "setting": "[9]", "value": 12, "unit": "nM"}
    ]},
    {"substance": "Pa-aIF1*-K34A (natural protein)", "values": [
      {"measurement": "Kd", "setting": "[8]", "value": 45, "unit": "nM"},
      {"measurement": "Kd", "setting": "[9]", "value": "> 300", "unit": "nM"}
    ]},
    {"substance": "Pa-aIF1-K34A (natural protein)", "values": [
      {"measurement": "factor concentration needed for a toeprinting pattern of 30S:mRNA:aIF1 like that of wt-Pa-aIF1", "setting": "[16]", "value": 8, "unit": "fold"}
    ]},
    {"substance": "Pa-aIF1*-Y32A (natural protein)", "values": [
      {"measurement": "Kd", "setting": "[8]", "value": 22, "unit": "nM"},
      {"measurement": "Kd", "setting": "[9]", "value": 20, "unit": "nM"}
    ]}
  ]
}
